Where a chain is given by its changes, count along the chain named. Names may count otherwise.

To fix the notation:
B1: R0968 (PD-L1 monoclonal antibody) (antibody, V domains shown)
VH: QVQLQESGPGLVKPSETLSLTCAVYGDSITSGYWNWIRKPPGKCLEYIGYISYTGSTYQNPSLKSRITMSRDTSKNQYYLKLSSVTAADTAVYYCARSRAWIRTYFDYWGQGTLVTVSS
VL: DIQMTQSPSSLSASVGDRVTITCSVSSSISSSNLHWYQQKPGKAPKPWIYGTSNLASGVPSRFSGSGSGTDYTLTISSLQPEDFATYYCQQWSSYPLTFGCGTKLEIK
B2: R1072: TIGIT_VH_IL15RA/TIGIT_VL_IL15/PD-L1-Fab (bispecific antibody)
chain 1: QVQLVQSGAEVKKPGSSVKVSCKASGYSFTSYWMNWVRQAPGQGLEWIGMIRPSDSETRLNQMFKDRVTITVDKSTSTAYMELSSLRSEDTAVYYCAGIHDYGHGAYWGQGTLVTVSSGGGGSGGGGSGGGGSGGGGSGITCPPPMSVEHADIWVKSYSLYSRERYICNSGFKRKAGTSSLTECVLNKATNVAHWTTPSLKCIRDPALVHQRPAPPSTVTTAGVTPQPESLSPSGKEPAASSPSSNNTAATTAAIVPGSQLMPSKSPSTGTTEISSHESSHGTPSQTTAKNWELTASASHQPPGVYPQGHSDTTEPKSSDKTHTCPPCPAPELLGGPSVFLFPPKPKDTLMISRTPEVTCVVVDVSHEDPEVKFNWYVDGVEVHNAKTKPREEQYNSTYRVVSVLTVLHQDWLNGKEYKCKVSNKALPAPIEKTISKAKGQPREPQVYTLPPSREEMTKNQVSLTCRVKGFYPSDIAVEWESNGQPENNYKTTPPVLKSDGSFFLASKLTVDKSRWQQGNVFSCSVMHEALHNHYTQKSLSLSPGK
chain 2: DIQMTQSPSSLSASVGDRVTITCRASENIYSNLAWYQQKPGKSPKLLVYAASHLPDGVPSRFSGSGSGTDYSLTISSLQPEDFATYYCQHFWGTPRTFGQGTKLEIKGGGGSGGGGSGGGGSGGGGSGNWVNVISDLKKIEDLIQSMHIDATLYTESDVHPSCKVTAMKCFLLELQVISLESGDASIHNTVQDLIILANNSLSSNGNVTESGCKECEELEEKNIKEFLQSFVHIVQMFINTS
heavy: QVQLQESGPGLVKPSETLSLTCAVYGDSITSGYWNWIRKPPGKGLEYIGYISYTGSTYQNPSLKSRITMSRDTSKNQYYLKLSSVTAADTAVYYCARSRAWIRTYFDYWGQGTLVTVSSASTKGPSVFPLAPSSKSTSGGTAALGCLVKDYFPEPVTVSWNSGALTSGVHTFPAVLQSSGLYSLSSVVTVPSSSLGTQTYICNVNHKPSNTKVDKRVEPKSCDKTHTCPPCPAPELLGGPSVFLFPPKPKDTLMISRTPEVTCVVVDVSHEDPEVKFNWYVDGVEVHNAKTKPREEQYNSTYRVVSVLTVLHQDWLNGKEYKCKVSNKALPAPIEKTISKAKGQPREPQVYTLPPSREEMTKNQVSLWCLVKGFYPSDIAVEWESNGQPENNYDTTPPVLDSDGSFFLYSDLTVDKSRWQQGNVFSCSVMHEALHNHYTQKSLSLSPGK
light: DIQMTQSPSSLSASVGDRVTITCSVSSSISSSNLHWYQQKPGKAPKPWIYGTSNLASGVPSRFSGSGSGTDYTLTISSLQPEDFATYYCQQWSSYPLTFGQGTKLEIKRTVAAPSVFIFPPSDEQLKSGTASVVCLLNNFYPREAKVQWKVDNALQSGNSQESVTEQDSKDSTYSLSSTLTLSKADYEKHKVYACEVTHQGLSSPVTKSFNRGEC
B3: R1110: TIGIT_VH_IL15RA (sushi65 T2A)/TIGIT_VL_IL15/PD-L1-Fab (bispecific antibody)
chain 1: QVQLVQSGAEVKKPGSSVKVSCKASGYSFTSYWMNWVRQAPGQGLEWIGMIRPSDSETRLNQMFKDRVTITVDKSTSTAYMELSSLRSEDTAVYYCAGIHDYGHGAYWGQGTLVTVSSGGGGSGGGGSGGGGSGGGGSGIACPPPMSVEHADIWVKSYSLYSRERYICNSGFKRKAGTSSLTECVLNKATNVAHWTTPSLKCIREPKSSDKTHTCPPCPAPELLGGPSVFLFPPKPKDTLMISRTPEVTCVVVDVSHEDPEVKFNWYVDGVEVHNAKTKPREEQYNSTYRVVSVLTVLHQDWLNGKEYKCKVSNKALPAPIEKTISKAKGQPREPQVYTLPPSREEMTKNQVSLTCRVKGFYPSDIAVEWESNGQPENNYKTTPPVLKSDGSFFLASKLTVDKSRWQQGNVFSCSVMHEALHNHYTQKSLSLSPGK
chain 2: B2 chain 2
heavy: B2 heavy
light: B2 light
B4: R1109: TIGIT_VH_IL15RA (sushi65)/TIGIT_VL_IL15/PD-L1-Fab (bispecific antibody)
chain 1: B3 chain 1 with A141T
chain 2: B2 chain 2
heavy: B2 heavy
light: B2 light
B5: R1111: TIGIT_VH_IL15RA (sushi65 T2A, T81A, T86A)/TIGIT_VL_IL15/PD-L1-Fab (bispecific antibody)
chain 1: QVQLVQSGAEVKKPGSSVKVSCKASGYSFTSYWMNWVRQAPGQGLEWIGMIRPSDSETRLNQMFKDRVTITVDKSTSTAYMELSSLRSEDTAVYYCAGIHDYGHGAYWGQGTLVTVSSGGGGSGGGGSGGGGSGGGGSGIACPPPMSVEHADIWVKSYSLYSRERYICNSGFKRKAGTSSLTECVLNKATNVAHWTTPSLKCIRDPALVHQRPAPPSTVATAGVAPQPESLSPSGKEPAASSPSSNNTAATTAEPKSSDKTHTCPPCPAPELLGGPSVFLFPPKPKDTLMISRTPEVTCVVVDVSHEDPEVKFNWYVDGVEVHNAKTKPREEQYNSTYRVVSVLTVLHQDWLNGKEYKCKVSNKALPAPIEKTISKAKGQPREPQVYTLPPSREEMTKNQVSLTCRVKGFYPSDIAVEWESNGQPENNYKTTPPVLKSDGSFFLASKLTVDKSRWQQGNVFSCSVMHEALHNHYTQKSLSLSPGK
chain 2: B2 chain 2
heavy: B2 heavy
light: B2 light
B6: R0919 (PD-L1 monoclonal antibody) (antibody, V domains shown)
VH: B1 VH with Q1E, C44G, I48M, M69F, V92T
VL: EIVLTQSPDFQSVTPKEKVTITCSVSSSISSSNLHWYQQKPDQSPKLLIYGTSNLASGVPSRFSGSGSGTDFTLTINSLEAEDAATYYCQQWSSYPLTFGQGTKLEIK
B7: R1120: TIGIT_VH_IL18R1_D1D2D3/TIGIT_VL_IL18/PD-L1-Fab (bispecific antibody)
chain 1: QVQLVQSGAEVKKPGSSVKVSCKASGYSFTSYWMNWVRQAPGQGLEWIGMIRPSDSETRLNQMFKDRVTITVDKSTSTAYMELSSLRSEDTAVYYCAGIHDYGHGAYWGQGTLVTVSSGGGGSGGGGSGGGGSGGGGSGCTSRPHITVVEGEPFYLKHCSCSLAHEIETTTKSWYKSSGSQEHVELNPRSSSRIALHDCVLEFWPVELNDTGSYFFQMKNYTQKWKLNVIRRNKHSCFTERQVTSKIVEVKKFFQITCENSYYQTLVNSTSLYKNCKKLLLENNKNPTIKKNAEFEDQGYYSCVHFLHHNGKLFNITKTFNITIVEDRSNIVPVLLGPKLNHVAVELGKNVRLNCSALLNEEDVIYWMFGEENGSDPNIHEEKEMRIMTPEGKWHASKVLRIENIGESNLNVLYNCTVASTGGTDTKSFIEPKSSDKTHTCPPCPAPELLGGPSVFLFPPKPKDTLMISRTPEVTCVVVDVSHEDPEVKFNWYVDGVEVHNAKTKPREEQYNSTYRVVSVLTVLHQDWLNGKEYKCKVSNKALPAPIEKTISKAKGQPREPQVYTLPPSREEMTKNQVSLTCRVKGFYPSDIAVEWESNGQPENNYKTTPPVLKSDGSFFLASKLTVDKSRWQQGNVFSCSVMHEALHNHYTQKSLSLSPGK
chain 2: not shown
heavy: B2 heavy with Q1E, I48M, M69F, V92T
light: EIVLTQSPDFQSVTPKEKVTITCSVSSSISSSNLHWYQQKPDQSPKLLIYGTSNLASGVPSRFSGSGSGTDFTLTINSLEAEDAATYYCQQWSSYPLTFGQGTKLEIKRTVAAPSVFIFPPSDEQLKSGTASVVCLLNNFYPREAKVQWKVDNALQSGNSQESVTEQDSKDSTYSLSSTLTLSKADYEKHKVYACEVTHQGLSSPVTKSFNRGEC
B8: R1116: TIGIT_VH_IL2/TIGIT_VL_IL2RA/PD-L1-Fab (bispecific antibody)
chain 1: not shown
chain 2: DIQMTQSPSSLSASVGDRVTITCRASENIYSNLAWYQQKPGKSPKLLVYAASHLPDGVPSRFSGSGSGTDYSLTISSLQPEDFATYYCQHFWGTPRTFGQGTKLEIKGGGGSGGGGSGGGGSGGGGSGELCDDDPPEIPHATFKAMAYKEGTMLNCECKRGFRRIKSGSLYMLCTGNSSHSSWDNQCQCTSSATRNTTKQVTPQPEEQKERKTTEMQSPMQPVDQASLPGHCREPPPWENEATERIYHFVVGQMVYYQCVQGYRALHRGPAESVCKMTHGKTRWTQPQLICTG
heavy: B2 heavy with Q1E, I48M, M69F, V92T
light: B7 light

T1 sequence (Q9NZQ7 19-290): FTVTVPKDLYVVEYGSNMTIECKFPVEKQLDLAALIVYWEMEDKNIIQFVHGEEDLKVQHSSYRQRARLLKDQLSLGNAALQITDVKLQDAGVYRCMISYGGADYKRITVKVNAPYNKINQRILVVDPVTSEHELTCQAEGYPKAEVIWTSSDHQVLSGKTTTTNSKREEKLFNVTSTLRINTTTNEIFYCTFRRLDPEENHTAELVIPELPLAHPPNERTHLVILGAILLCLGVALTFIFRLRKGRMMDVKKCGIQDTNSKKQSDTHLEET

One assay concerns the target T1, PD-L1 (on CHO-PD-L1 cells) (UniProt Q9NZQ7 19-290). The assay can be described thus: FACS binding; Fig. 24. Background: In flow cytometry, cells or beads pass a laser one at a time.
By EC50 is commonly meant the concentration needed to bring the measured effect to its halfway point. The molecule B1 registered an EC50 of 2.01 nM. As for B2, the EC50 was 2 nM.

The target in the next assay is T1, PD-L1 (on CHO-PD-L1 cells). The assay can be described thus: FACS binding; Fig. 25.
In turn, B1 gave an EC50 of 2.91 nM. For the molecule B3, the EC50 was determined as 1.53 nM. Same read-out and setting: as for B4, the figure is 1.56 nM; as for B5, 2.39 nM. Still for that read-out and setting: as for B2, the figure is 2.08 nM.

Another assay concerns the target T1, PD-L1 (on CHO-PD-L1 cells). As to the kind of experiment: FACS binding; Fig. 22.
For the molecule B6, the EC50 came out at 3.38 nM. B7 gave an EC50 of 2.99 nM. With B2, the EC50 was 3.73 nM. The EC50 values of the last two molecules are within 1.5-fold of each other. Same read-out and setting: as for B8, the figure is 4.15 nM.

The values above are taken from patent US20250277023A1 (published 2025).
